The values that follow come from patent publication US20120308580A1 (NATIONAL UNIVERSITY OF SINGAPORE, published 2012).

Assay [1] concerns the target T1, HBV env183-191 peptide / HLA-A201 complex on cells (human; Hepatitis B virus).
For assay [2], the target named is T2, HBV pol, 455-463 peptide / HLA-A201 complex on T2 cells (human; Hepatitis B virus).
T2 construct: whole, on cells
Kind of assay: flow cytometry, peptide pulsed T2 cells (FIG. 8A, peptides of Table 4).

The target of assay [3] is T3, FEC11 (EBV) peptide / HLA-A201 complex on T2 cells (human; EBV). Described as above.
The target in assay [4] is T4, HBc19-27I peptide / HLA-A201 complex on T2 cells (human; Hepatitis B virus).
T4 construct: whole, on cells
Described as above.

Assay [5] deals with T2, HBV pol, 455-463 peptide / HLA-A201 …. Nature of the assay: flow cytometry, peptide pulsed T2 cells.
The target in assay [6] is T5, Mage3, 271-279 peptide / HLA-A201 complex on T2 cells (human).
T5 construct: whole, on cells; also called Mage3-271-79
Nature of the assay: flow cytometry, peptide pulsed T2 cells.

The target in assay [7] is T6, HBV env, 348-357 peptide / HLA-A201 complex on T2 cells (human; Hepatitis B virus).
T6 construct: whole, on cells
Kind of assay: flow cytometry, peptide pulsed T2 cells. Background: A flow cytometer gives signals particle by particle.

For assay [8], the target named is T3, FEC11 (EBV) peptide / HLA-A201 complex …. Kind of assay: flow cytometry, peptide pulsed T2 cells.
The target of assay [9] is c18-27 peptide alone (free, not on HLA-A2) (Hepatitis B virus). Kind of assay: pre-incubation with free peptide, then flow cytometry on the specific target.
Assay [10] has as its target T1, HBV env183-191 peptide / HLA-A201 …. This is another data set of the same source.

B1: E183/A2 mAb (antibody, V domains shown)
VH: QVQLQQPGAEFVKPGASVRLSCKASGYTFSSYWMHWVKQRPGQGLEWIGEIDPSDSYTNYNQKFKGKATLTVDKSSSTAYMQFSSLTSEDSAVYYCATSGYDVGVDYWGQGTTLTVSS
VL: DIQMTQSPASLSASVGETVTITCRASENIYSYLAWYHQKQGKSPQLLVYIAKTLAEGVPSRFSGSGSGTQFSLKIDSLQPEDVGSYYCQHHYGTPYTFGGGTKLEIK
notes: also called HBe183-191 antibody; antibody against HBe183-191
Take B1: in [1], the “EC50 (read off the curve)” value was around 0.01 µg. Further, the binding result in assay [2], in assay [3] and in assay [4] was “no binding (tested: 1 µM peptide; 0.5 µg mAb)” each time.

B2: c18/A2 mAb (antibody, V domains shown)
VH: QVQLQQSGPELVKPGASVKISCKASGHTFTSYDINWVKQRPGQGLEWIGWIYPGDGSTKYNEKFKGKATLTADKSSSTAYMQLSSLTSENSAVYFCARRDYGYSYAMDYWGQGTSVTVSS
VL: DIQMTQSPASLSTSVGETVTITCRASGNIHNYLAWYQQKQGKSPQLLVYNAKTLADGVPSRFSGSGSGTQFSLKINSLQPEDFGSYYCQHFWSTPFTFGSGTKLEIK
notes: also called HBc18-27 antibody
For B2, the binding result in assay [5] was “no binding (tested: 1 µM peptide; 0.5 µg mAb)”; in assay [6], “no binding (tested: 1 µM peptide; 0.5 µg mAb)”; in assay [7] it was “no binding (tested: 1 µM peptide; 0.5 µg mAb)”; in [8] it was “no binding (tested: 1 µM peptide; 0.5 µg mAb)”; in assay [4], “no binding (tested: 1 µM peptide; 0.5 µg mAb)”; in assay [9], “no binding (tested: 1 uM)”. For the same molecule, in assay [10], the binding result is “no binding (tested: 0.5 ug mAb in 50 ul)”.
